Reference: the supplement of paper PMC10724198
± gives the standard deviation of the averaged measurements.

Legend:
Saccharomyces cerevisiae [1] = assay: protein stability index of tFT-peptide fusion (C-terminal peptide) (PSI (0-1 scale)); higher = more stable (slower turnover)
Procedure: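 MPS profiling in S. cerevisiae of the tFT-X12 degron library: putative degron peptides plus stable controls, 12 aa, fused to the C-terminus of a sfGFP-mCherry timer. Cells are FACS-sorted into 8 mCherry/sfGFP bins and deep-sequenced. PSI runs from 0 (unstable) to 1 (stable). Backgrounds are wild type, das1Δ and doa10Δ at 30 °C, and wild type, das1Δ, cdc34-1 and cdc53-1 at 37 °C; 2-3 technical replicates each.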

Saccharomyces cerevisiae [2] = assay: as above; conditions: genetic background: wild type; temperature: 30 C
[3] = genetic background: cdc34-1, temperature: 37 C
[4] = genetic background: cdc53-1, temperature: 37 C
[5] = genetic background: das1 deletion, temperature: 30 C
[6] = genetic background: das1 deletion, temperature: 37 C
[7] = genetic background: doa10 deletion, temperature: 30 C
[8] = genetic background: wild type, temperature: 30 C
[9] = genetic background: wild type, temperature: 37 C
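Also: PSI is a weighted mean of sequencing reads over stability bins, variants kept only with over 10 reads, mCherry proximal and sfGFP distal, peptide attached via GGGS linker.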

Sequence | protein stability index (Saccharomyces cerevisiae [1]; [3]) | protein stability index (Saccharomyces cerevisiae [1]; [4]) | protein stability index (Saccharomyces cerevisiae [1]; [5]) | protein stability index (Saccharomyces cerevisiae [1]; [6]) | protein stability index (Saccharomyces cerevisiae [1]; [7]) | protein stability index (Saccharomyces cerevisiae [1]; [8]) | protein stability index (Saccharomyces cerevisiae [1]; [9]) | protein stability index (Saccharomyces cerevisiae [2])
PIHILTHTYIGR | 0.669 ± 0.028 | 0.7695 ± 0.00066 | 0.636 ± 0.025 | 0.719 ± 0.013 | 0.643 ± 0.014 | 0.664 ± 0.012 | 0.707 ± 0.013 | 0.738 ± 0.018
WFIFATFLILVT | 0.0797 ± 0.0056 | 0.112 ± 0.0058 | 0.136 ± 0.032 | 0.2121 ± 0.001 | 0.154 ± 0.014 | 0.121 ± 0.0082 | 0.182 ± 0.012 | 0.193 ± 0.051
GFISKLIIKLAA | 0.542 ± 0.0055 | 0.566 ± 0.032 | 0.43 ± 0.025 | 0.5511 ± 0.0043 | 0.269 ± 0.0091 | 0.319 ± 0.016 | 0.462 ± 0.026 | 0.435 ± 0.0059
SGPCSPRNLRRL | 0.699 ± 0.032 | 0.754 ± 0.012 | 0.621 ± 0.017 | 0.736 ± 0.019 | 0.651 ± 0.015 | 0.647 ± 0.03 | 0.719 ± 0.02 | 0.281 ± 0.018
VCLLVSVCLLWL | 0.172 ± 0.0043 | 0.244 ± 0.047 | 0.21 ± 0.013 | 0.329 ± 0.021 | 0.18 ± 0.023 | 0.192 ± 0.025 | 0.309 ± 0.016 | 0.252 ± 0.015
SGPTIRRRLFVH | 0.647 ± 0.021 | 0.735 ± 0.02 | 0.621 ± 0.012 | 0.7286 ± 0.0068 | 0.148 ± 0.018 | 0.17 ± 0.043 | 0.347 ± 0.019 | 0.333 ± 0.0092
VWGLWRLCVWGV | 0.3896 ± 0.0011 | 0.479 ± 0.0054 | 0.327 ± 0.036 | 0.5012 ± 0.0017 | 0.274 ± 0.0082 | 0.302 ± 0.025 | 0.477 ± 0.0086 | 0.371 ± 0.057
LYLEAYFCIFHF | 0.356 ± 0.052 | 0.449 ± 0.0069 | 0.358 ± 0.025 | 0.422 ± 0.013 | 0.334 ± 0.017 | 0.327 ± 0.004 | 0.401 ± 0.015 | 0.36 ± 0.024
CFGIFWLFARLK | 0.281 ± 0.07 | 0.32 ± 0.03 | 0.289 ± 0.022 | 0.422 ± 0.0073 | 0.343 ± 0.018 | 0.274 ± 0.035 | 0.389 ± 0.035 | 0.345 ± 0.059
VFFLSFIFRFFL | 0.594 ± 0.022 | 0.558 ± 0.02 | 0.508 ± 0.035 | 0.547 ± 0.013 | 0.482 ± 0.021 | 0.454 ± 0.0048 | 0.55 ± 0.087 | 0.532 ± 0.048
WFLVLLFFWFLL | 0.524 ± 0.0097 | 0.628 ± 0.055 | 0.541 ± 0.0066 | 0.618 ± 0.028 | 0.55 ± 0.036 | 0.533 ± 0.022 | 0.566 ± 0.0068 | 0.48 ± 0.073
LPSLRPPPCIRA | 0.4441 ± 0.002 | 0.473 ± 0.013 | 0.36 ± 0.038 | 0.54 ± 0.02 | 0.332 ± 0.041 | 0.345 ± 0.015 | 0.513 ± 0.014 | 0.48 ± 0.018
FFLLLLRPPLVM | 0.34 ± 0.035 | 0.363 ± 0.0046 | 0.275 ± 0.035 | 0.4464 ± 0.0041 | 0.276 ± 0.0029 | 0.267 ± 0.03 | 0.41225 ± 0.0001 | 0.374 ± 0.051
VIVIQGFVFVLG | 0.2898 ± 0.0021 | 0.426 ± 0.033 | 0.267 ± 0.033 | 0.482 ± 0.0059 | 0.234 ± 0.0035 | 0.248 ± 0.035 | 0.421 ± 0.0092 | 0.279 ± 0.073
DECQLCNRDWRG | 0.689 ± 0.069 | 0.739 ± 0.013 | 0.634 ± 0.015 | 0.726 ± 0.019 | 0.644 ± 0.032 | 0.657 ± 0.042 | 0.733 ± 0.018 | 0.7185 ± 0.0063
PPPPPPLPSSFP | 0.679 ± 0.024 | 0.749 ± 0.0084 | 0.645 ± 0.009 | 0.7094 ± 0.0028 | 0.666 ± 0.033 | 0.655 ± 0.01 | 0.7063 ± 0.0068 | 0.449 ± 0.026
GYTVYARRLIMC | 0.215 ± 0.0094 | 0.265 ± 0.008 | 0.236 ± 0.024 | 0.382 ± 0.021 | 0.0746 ± 0.0026 | 0.0799 ± 0.0087 | 0.0893 ± 0.024 | 0.146 ± 0.015
KLKLWSIIKNNA | 0.686 ± 0.06 | 0.749 ± 0.021 | 0.658 ± 0.022 | 0.745 ± 0.015 | 0.181 ± 0.008 | 0.25 ± 0.05 | 0.484 ± 0.053 | 0.385 ± 0.03
LTIYPLTYCFVS | 0.629 ± 0.051 | 0.704 ± 0.046 | 0.562 ± 0.025 | 0.657 ± 0.058 | 0.45336 ± 0.00045 | 0.44 ± 0.023 | 0.568 ± 0.025 | 0.502 ± 0.035
SPGGALVFFVLV | 0.552 ± 0.038 | 0.5998 ± 0.0056 | 0.44 ± 0.023 | 0.617 ± 0.0083 | 0.391 ± 0.012 | 0.431 ± 0.027 | 0.606 ± 0.017 | 0.467 ± 0.0054

Sequence | protein stability index (Saccharomyces cerevisiae [1]; [3]) | protein stability index (Saccharomyces cerevisiae [1]; [4]) | protein stability index (Saccharomyces cerevisiae [1]; [5]) | protein stability index (Saccharomyces cerevisiae [1]; [6]) | protein stability index (Saccharomyces cerevisiae [1]; [7]) | protein stability index (Saccharomyces cerevisiae [1]; [8]) | protein stability index (Saccharomyces cerevisiae [1]; [9]) | protein stability index (Saccharomyces cerevisiae [2])
SYWNSSPKCGNW | 0.712 ± 0.064 | 0.76 ± 0.022 | 0.667 ± 0.021 | 0.7705 ± 0.0011 | 0.664 ± 0.039 | 0.681 ± 0.018 | 0.746 ± 0.011 | 0.744 ± 0.0092
LLLFLHILRYVF | 0.541 ± 0.026 | 0.551 ± 0.015 | 0.417 ± 0.028 | 0.581 ± 0.046 | 0.398 ± 0.025 | 0.368 ± 0.016 | 0.529 ± 0.088 | 0.414 ± 0.026
WLGCVLIGWHVL | 0.355 ± 0.0098 | 0.413 ± 0.0055 | 0.288 ± 0.048 | 0.481 ± 0.01 | 0.169 ± 0.0054 | 0.19 ± 0.017 | 0.364 ± 0.052 | 0.27 ± 0.011
RPRRARLPNFLA | 0.37 ± 0.0066 | 0.64023 ± 0.0001 | 0.653 ± 0.022 | 0.705 ± 0.018 | 0.0688 ± 0.021 | 0.073 ± 0.0067 | 0.0894 ± 0.0014 | 0.0979 ± 0.012
PPSPPLPPPSPF | 0.671 ± 0.013 | 0.773 ± 0.019 | 0.69 ± 0.0097 | 0.742 ± 0.041 | 0.694 ± 0.036 | 0.67 ± 0.018 | 0.707 ± 0.016 | 0.34 ± 0.046
PRHERPPRDNGH | 0.674 ± 0.041 | 0.72232 ± 0.00022 | 0.655 ± 0.011 | 0.73 ± 0.013 | 0.6522 ± 0.0063 | 0.654 ± 0.025 | 0.702 ± 0.022 | 0.709 ± 0.025
FFAFLRFFIFYW | 0.319 ± 0.058 | 0.266 ± 0.087 | 0.349 ± 0.032 | 0.435 ± 0.0075 | 0.419 ± 0.0083 | 0.328 ± 0.0074 | 0.451 ± 0.026 | 0.448 ± 0.063
CGCLPYIGTKLC | 0.463 ± 0.076 | 0.711 ± 0.026 | 0.647 ± 0.028 | 0.766 ± 0.013 | 0.087 ± 0.036 | 0.117 ± 0.018 | 0.106 ± 0.012 | 0.165 ± 0.0027
RVCYQIAISLPI | 0.546 ± 0.0067 | 0.571 ± 0.027 | 0.438 ± 0.012 | 0.552 ± 0.013 | 0.428 ± 0.022 | 0.432 ± 0.02 | 0.542 ± 0.03 | 0.495 ± 0.016
SPSRAGQHLYYP | 0.684 ± 0.028 | 0.7347 ± 0.0032 | 0.64 ± 0.016 | 0.7334 ± 0.0037 | 0.636 ± 0.0095 | 0.662 ± 0.011 | 0.6953 ± 0.0059 | 0.718 ± 0.034
SRLLGVKVSLVC | 0.518 ± 0.025 | 0.567 ± 0.033 | 0.419 ± 0.031 | 0.581 ± 0.0085 | 0.35 ± 0.0097 | 0.384 ± 0.031 | 0.5364 ± 0.0038 | 0.472 ± 0.032
FPLPPPGSPPPL | 0.68 ± 0.035 | 0.7381 ± 0.0033 | 0.6712 ± 0.0062 | 0.735 ± 0.0085 | 0.682 ± 0.0071 | 0.677 ± 0.011 | 0.707 ± 0.014 | 0.0293 ± 0.02
GVAFGLLVWLLG | 0.432 ± 0.021 | 0.509 ± 0.014 | 0.357 ± 0.026 | 0.5307 ± 0.0018 | 0.304 ± 0.02 | 0.326 ± 0.033 | 0.484 ± 0.0068 | 0.378 ± 0.071
DVCGVRYVLFVL | 0.57 ± 0.014 | 0.647 ± 0.018 | 0.49 ± 0.025 | 0.655 ± 0.024 | 0.416 ± 0.0086 | 0.428 ± 0.026 | 0.597 ± 0.026 | 0.502 ± 0.013
YLFDQYDWYKSM | 0.643 ± 0.063 | 0.7663 ± 0.007 | 0.666 ± 0.041 | 0.8049 ± 0.0067 | 0.156 ± 0.0072 | 0.162 ± 0.027 | 0.348 ± 0.02 | 0.368 ± 0.081
GIKLNVVYILLG | 0.486 ± 0.045 | 0.544 ± 0.025 | 0.377 ± 0.03 | 0.644 ± 0.017 | 0.34 ± 0.041 | 0.35 ± 0.05 | 0.536 ± 0.0097 | 0.482 ± 0.072
AASRVIYLLNLF | 0.653 ± 0.034 | 0.753 ± 0.008 | 0.6272 ± 0.0031 | 0.736 ± 0.027 | 0.197 ± 0.0028 | 0.232 ± 0.018 | 0.473 ± 0.027 | 0.3446 ± 0.0022
VCRCFPVCLFSF | 0.6178 ± 0.0049 | 0.692 ± 0.014 | 0.523 ± 0.023 | 0.706 ± 0.027 | 0.294 ± 0.0057 | 0.341 ± 0.029 | 0.519 ± 0.02 | 0.413 ± 0.031
NTYKICVVSVTS | 0.449 ± 0.014 | 0.552 ± 0.021 | 0.355 ± 0.047 | 0.587 ± 0.0069 | 0.267 ± 0.019 | 0.299 ± 0.035 | 0.578 ± 0.018 | 0.413 ± 0.018
